From the nanobody polyreactivity screen of Harvey et al. (2022)

Test: yeast display, Sf9 membrane polyspecificity reagent, FACS + sequencing; frameworks hold sequencing errors
Summary of the method: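 Nanobodies came from a synthetic yeast display library in Saccharomyces cerevisiae BJ5465, induced with galactose for 36–48 hours and stained for 1 hour at 4 °C with 10% biotinylated, detergent-solubilized Sf9 membrane reagent. Cells were enriched on streptavidin microbeads and then FACS-sorted, with low and high (top ~1%) gates set on anti-HA fluorescence for expression and streptavidin fluorescence for reagent binding. Each polyreactivity label reflects the gate a clone came from. Genes were amplified by colony PCR, sequenced by MiSeq 2 × 250 and filtered by CDR length.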

Row | Sequence | polyreactivity (PSR sort gate)
1 | QVQLVESGGGLFQAGGSLRLSCAASGRTFDDYAMGWYRQAPGKERELVAGITDNGGGTNYADSVKGRFTISRDNAKNTVYLQMNSLKQEDTAVYYCAAGETFEMYYWGQVTQVTVSS | low polyreactivity
2 | QVQLVESGGGLVQAGGSLRFSCAASGSTVYSYAMGWYRQAPGKERELVAAITRGGRTYYADSVKGRFTISRDNAKNTVYFKMNSLKPEDTAVYSCKVVTKFTGRGYDYWGQGSQVTVSS | high polyreactivity
3 | QVQLVESGGGLVQAGGSLRLSCAASGRTFPRNGMGWYRQAPGKERELVAAISWSGGRTYYADSVKGRFTISRDNAKNTVYLQMNSLKPEDTAVYYCNALYFRKAGYWGKGTQVTVSS | high polyreactivity
4 | QVQLVESGGGLVQAGGSLRLSCAASGSTFPKYAMGWYRQAPGKERELVATISSGTRTYYADSVKGRFTISRDNAKNTVYLQMNSLKPEDTAVYYCAARYQPRKGAHYGYWGQGTQVTVSS | high polyreactivity
5 | QVQLVESGGGLVQAGGSLRLSCAASGFTFAKYAMGWYRQAPGKERELVAAISSSGGRTYYADSVQGRFTLSRDNAKNTDYLQMNSLKPEDTAVYYCAADFSGPFDYWGQGTQVTVSS | high polyreactivity
6 | QVQLVESGGGLVQAGGSLRLSCAASGRIFPTNAMGWYRQAPGKERVFVAAITWGGGSTYYAVSVKGRFTISRDNAKNTVYLQMNSLKPEDTAVYYCAATGHIVFFRSYDYGYWGQGTQVTVSS | low polyreactivity
7 | QVQLVDSGGGLVQAGGSLRLICAASGFIFTDYAMGWYRQAPGKEREFFAAIDWSGGNTYYADSVKGRFTISRDNAKNTVYLQMKSLKPEDTAVYYCAASGSAREYDYWGQGTQVTVSS | low polyreactivity
8 | QVQLVESGGGLVQEGGSLRLSCAASGFIFGYYAMGWYRQAPGKERELVAAISFSDGITYYADSVKGRFTISRDNAKNTVYLQMNSLKPEDTAVYYCATEILDYYYGSEYDYWGQGTQVTVSS | high polyreactivity
9 | QVQLVESGGGLVQAGGRLRLTCAASGFTFGRYAMGWYRQAPGKERDLVADITSGSGGTYYADSVKGRFTISRATAKNSVYLQMNSLKPEDTAVYYCATGSRSRGALRYAHFDFWGQGTQVSVSS | high polyreactivity
10 | QVQLVESGGGLVQAGGSLRFSCAASGFTIVGNTMGWYRQAPGKERELVASINTNGGSTYYADSVKGRFTISRDNAKNTVYLQMNSLKPEDTAVYYCAKDREDTYFEYEYDYWGQGTQVTVSS | low polyreactivity
11 | QVQLVESGGGLVQAGGSLRLSCAASGSTFATYTMGWYRQAPGKERELVAAITRGSNTYYADSVKGRFTISRDNAKNTVDLQMNSLKPEHTAVYYCAAGYSGYRKYNSWGQGTQVTVSS | high polyreactivity
12 | QVQLVESGGGLVQAGGSLRLSCAASGSTFAVYTMGWYRQAPGKERELSTSYADSVKGRFTISRDNAKNTVYLQMNSLKPEDTAVYYCNRDFYEFDSNSYRFDYWGQGTQVTVSS | low polyreactivity
13 | QVQLVESGGGLVQAGGRLRLGCAASGSTYLYNAMGLYRQAPGKERELVAAISWTGGSTYYADSVKARYTISRDNAKNTVYLQMNSLKPEDTAVYYCNSLSVPDYDYWGHGTQVTVSS | high polyreactivity
14 | QVQLVESGGGLVQAGGSLRLSCAASGSISYRYDMGWYRQSPGKERELVATIRSGGSTNYADSVKGRFTISRDNAKNTVYLQMNSLKPEDTAVYYCAARLYARKKLHFSADSDYWGQGSQVTVSS | low polyreactivity
15 | QVQLVESGGGLVQAGGILRLSCAASGFTFSSNAMGWYRPAPGKERELVAAISKGGGSTYYADSVKGRFTISRDNAKNSVYLQMNSLKPEDTAVYYCATRRRGGLTFDSWGQGTQVTVSS | high polyreactivity
16 | QVHLVESGGGLVQAGGSLRLSCAASGSTFDTYAMGWYRQAPGKERELVAAISYRGGNTYYADSVKGRFTISRDNAKNTVYLQMNSLKPEDTAVYYCNAGVSIGRSRRYDYWGQGTQVTVSS | low polyreactivity

Row | Sequence | polyreactivity (PSR sort gate)
17 | QVQLVESGGGLVQAGGSLRLSCSASGFIFRFYGMGWYRQAPGKERELVASIRRSGGSTYYADSVKGRFTISRDNAKNSVYLQMNSLKPEDTAVYDCAARWYVYVHFERYYWGQGTQVTVSS | high polyreactivity
18 | QVQLVESGGGLVQAGGSLRLSCAASGLIFSYNAMGWYRQAPGKVRELVATSRRVGSTHYADSVKGRFTISRDNAKNTVYLPMNSLKPEDTAVYDCAARSLRYGRGMYYWGQGTQGTVSS | high polyreactivity
19 | QVQLVESGGGLVQAGGSLRLSCAASGFYNTMGWYRQAPRKERELVAAISTGGMTNYADSVKGRFTISRDNAKNTVYLQMNSLKPVDTAVYYCAADGYSTVYSTYDYWGQGTQVTVSS | low polyreactivity
20 | QVQLVESGGGLVQAGGSLRLSSAASGRIFRYYTMGWYRQAPGKERELVATITSDGRTNYADSVNGRFTISRDNAKNSVYLQMNSLKPEDTAVYYCAARYVMGGQGTSRRVGGGYWGQGTQVTVSS | high polyreactivity
21 | QVQLVESGGGLVQAGGSLRLSCAASGRIFYIYAMGWYRQAPGKERELVASITSSGTSTYADSVKGRFTISRDNAKNTVYLQMNSLKPEDTAVYYCNARGYPKSWRYSRGYEYWGQGTQVTVSS | low polyreactivity
22 | QVQLVESGGGLVQAGGSLRLSCAASGSIFRLNTMGWYRQAPGKERELVAAIFTSGGSTYADSVKGRFTISRDNAKNTVYLQMNSLKPEDTAVYYCAGMDYWGQGTQVTVSS | low polyreactivity
23 | QLQLVESGGGLVQAGGSLRLSCAASGSTFTWKAMGWYRQAPGKERELVAAITSGCRTYYADSVKGRFTISRDNAKNTVYIEMNSLKPEDTAVYYCAAKVRHYYSASNYYYWGQGTQVTVSS | high polyreactivity
24 | QGQLVESAGGLVQAAGSLRLSCAASGITFHYYAMGWYRQAPGKERELVAAIDGSDTDTYYADSVKGRFTISRDNAKNTVYLQMNSLKQEDTAVYYCAAEYTYAALARNDDYWGQCTQVTVSS | high polyreactivity
25 | QVQLVESGGGLVQAGGSLRLSCAASGRTFRVYTMGWYRQAPGKERELVAVISGRGGSTSYADSVKGRFTISRDNAKNTVDLQMNSLKPEDTAVYYCAARGRAHWHYDYWGQGTQVTVSS | high polyreactivity
26 | QVQLVESGGGLVQAGCSLRLSCAASGRIFDGNAMGWYRQAPGKERELVAAISWTGGSTYYADSVKGRFTISRDNAKNTVYLQMNSLKPEDTAVYYCAADSGWWLEQWSWYDYWGQGTQVTVSS | low polyreactivity
27 | QLQLVESGGGLVQAGGSLRLSCAASGNTYFWYAMGWYRQAPGKERELVAAITSGGSTTYADSVKGRFTISRHNGMNTVYLQMNSLKPEDTAVYYCAQYTRDIFAVTFYEGEDYWGQGSQVTVSS | low polyreactivity
28 | QVQLVESGGGLVQAGGSLRLSCAAYGIIIGNNAMGCYRQAPGKERELVAAISRRGGSTYYADSVKGRFTISRDNAKNTVYLQMNSLKPEDTAVYYCAADIYRYNSYDYWGQGTQVTVSS | low polyreactivity
29 | QVQLVESGGGLVHARGSLRLSCAASGCTFVRNAMGWYRPAPGKERELGAAITSRGGSTYYADSVKGRFTISRDNAKNTVYLQMNSLKPEDTAVYYCAARFGVKRGQYDFWGQGTQVTVSS | high polyreactivity
30 | QVQLVESGGGLVQAGGILRISCAASGFIFDLYAMGWYRQAPGKERELVAAISGSGGSTYYADSVKGRFTISRDNAKNTVYLQMNSLKPEDTAVYYCAARRFGTNYDYWGQGTQVTVSS | high polyreactivity
31 | QVQLVESGGGLVQAGGSLRLSCAASGSIFTAYTMGWYRQAPGKERELVAAITERGGSTYYADSVKGRFTISRDNAKNTVYLQMNSLKPEDTAVYYCNAVWYFKPPPLYYIPYRQYDYWGQGTQVTVSS | low polyreactivity
32 | QVQLVESGGGLVQAGGSLRLSCAASGYILYGNTMGWYRQAPGKERELVAAISGGGSTNYADSVKGRFTISRDNAKNTVYLQMNSLKPEETAVYYCAVDVKIGTDFIGVVIPGDYWGQGTQVTVSS | low polyreactivity
